In patent US20110311550A1 (Scripps Research, published 2011):

B1: MAb AR1A (IgG1 from Fab B2) (antibody, V domains shown)
VH: LEQSGAEVKKPGSSVKVSCRASGSPYSSYTITWVRQAPGQGLEWMGGIILMTGKANYAQKFQGRVTITADRATATAYMEMSSLTSDDTAIYYCARDPYVYAGDDVRSLSRWGQGTPVIVSS
VL: not shown
notes: also called ARIA
B2: MAb AR3C (IgG1 from Fab H3) (antibody, V domains shown)
VH: LEQSGAEVKKPGSSVKVSCETSGGTLDNYALNWVRQAPGQGLEWIGGVVPLFGTTRNAQKFQGRVTISDDKSTGTGHMELRSLRSEDTAVYYCVRSVTPRYCGGGFCYGEFDYWGQGTLVTVSS
VL: ELTQSPATLSVSPGERATLSCRASQSVSSNLAWYQQKPGQAPRLLIYGASTRATGIPARFSGSGSGTEFTLTVSRLEPEDSAVYFCQQYYRSPLTFGGGTKVEIKR
B3: Fab B7 (Fab, V domains shown)
VH: VQLLEQSGAEVKKPGSSVKVSCRASGSPYSSYTITWVRQAPGQGLEWMGGIILMTGKANYAQKFQGRVTITADRATATAYMEMSSLTSDDTAIYYCARDPYVYAGDDVWSLSRWGQGTPVIVSS
VL: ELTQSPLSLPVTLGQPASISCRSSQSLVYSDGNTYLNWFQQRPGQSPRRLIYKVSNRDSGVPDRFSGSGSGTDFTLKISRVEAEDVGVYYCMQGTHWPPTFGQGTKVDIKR
B4: Fab L7 (Fab, V domains shown)
VH: VQLLEQSGAEVKKPGSSVKVTCKVPGDTFRSYVITWVRQAPGQGLEWLGGILPFFGTTNLAQKFQGRVTLTADESTTTAYMELSSLRAEDTAVYYCAKAGDLAFGGVIAGGVPHLSHFDPWGQGTLVTVSS
VL: ELTQSPGTLSLSPGERATLSCRASQSVPSSYLGWYQQKPGQAPRLLIYGASSRATGIPERFSGSGSGTDFTLTISRLEPEDFAVYYCQQYGSSLSFGQGTKVDLKR
B5: MAb AR2A (antibody, V domains shown)
VH: LEQSGAEMKKPGASLKVSCKTSGYTFDDYGVTWVRQAPGQGLEWMGWISAYSGNTFYARKFQGRVTMTTDPSTRTAYMELRSLRSDDTAVYFCARDRGLAINGVVFPYFGLDVWGQGTTVTVSS
VL: ELTQSPVSLPVTPGEPASISCRSSQSLLHSNGNHYLDWYLQKPGQSPQLLMYLGSNRASGVPDRFSGSGSGTDFTLKISRVEAEDVGVYYCMQGLQTPWTFGQGTKVEIKR
notes: also called IgG1 of Fab G
B6: MAb AR1A (antibody, V domains shown)
VH: B1 VH
VL: not shown
notes: also called IgG1 of Fab B2
B7: MAb AR1B (antibody, V domains shown)
VH: LESGGGLVQPGGSLRLSCEASGYYFSSFAMSWVRQTPGKGLEWVSSIAGGTLGRTSYRDSVKGRFTISRDNSKNTVFLHMNNLRPEDTAVYYCAKDPLLFAGGPNWFDHWGQGTLVTVSS
VL: not shown
notes: also called IgG1 of Fab D1
B8: MAb AR3C (antibody, V domains shown)
VH: B2 VH
VL: B2 VL
notes: also called IgG1 of Fab H3

These binders were tested against T1, HCV E1E2 complex, isolate H77 (genotype 1a) (hepatitis C virus genotype 1a, isolate …, UniProt P27958 192-383; P27958 384-746) (assay: ELISA, mAb with E1E2 (H77), then CD81-LEL plate).
B1 gave an IC50 of 5.7 nM. B2 was tested, and the IC50 was 2 nM.

Each binder was assayed against T1, HCV E1E2 complex, isolate H77 (genotype …) (assay: Fab screen after panning on antibody-masked E1E2 (H77)).
B3: binds. B4: binds.

What follows are binders tested against T2, HCV E1E2 complex, isolate H77 (genotype 1a) (hepatitis C virus genotype 1a, isolate …, UniProt P27958 192-383; P27958 384-746) (assay: competition ELISA on lectin-captured H77 E1E2; competitor: Fab P5).
T2 construct: also called E1E2 (H77); Folded E1E2
For B5, the residual binding was 73%. For B6, the residual binding was 87%. B7 was tested, and the residual binding was 95%. B8 gave a residual binding of 117%.

The binders below were run against T2, HCV E1E2 complex, isolate H77 (genotype …) (assay: competition ELISA on lectin-captured H77 E1E2; competitor: Fab P6).
B5 gave a residual binding of 76%. B6 showed a residual binding of 82%. B7 was tested, and the residual binding was 95%. B8 was tested, and the residual binding was 103%.

The binders below were run against T2, HCV E1E2 complex, isolate H77 (genotype …) (assay: competition ELISA on lectin-captured H77 E1E2; competitor: Fab Q1).
In the case of B5, the residual binding is reported as 75%. B6 gave a residual binding of 79%. B7 was tested, and the residual binding was 97%. Binder B8 has a residual binding of 97%.

What follows are binders tested against T2, HCV E1E2 complex, isolate H77 (genotype …) (assay: competition ELISA on lectin-captured H77 E1E2; competitor: Fab Q2).
For B5, the residual binding was 72%. In the case of B6, the residual binding is reported as 78%. Binder B7 has a residual binding of 96%. Binder B8 has a residual binding of 75%.

The binders below were run against T2, HCV E1E2 complex, isolate H77 (genotype …) (assay: competition ELISA on lectin-captured H77 E1E2; competitor: Fab R1).
B5 was tested, and the residual binding was 75%. With B6 the residual binding was 100%. In the case of B7, the residual binding is reported as 101%. B8 gave a residual binding of 163%.

What follows are binders tested against T2, HCV E1E2 complex, isolate H77 (genotype …) (assay: competition ELISA on lectin-captured H77 E1E2; competitor: Fab S1).
B5 showed a residual binding of 79%. With B6 the residual binding was 69%. For B7, the residual binding was 101%. B8 was tested, and the residual binding was 149%.

These binders were tested against T2, HCV E1E2 complex, isolate H77 (genotype …) (assay: competition ELISA on lectin-captured H77 E1E2; competitor: Fab T1).
Binder B5 has a residual binding of 93%. For B6, the residual binding was 80%. B7 showed a residual binding of 102%. B8 was tested, and the residual binding was 105%.

Each binder was assayed against T2, HCV E1E2 complex, isolate H77 (genotype …) (assay: competition ELISA on lectin-captured H77 E1E2; competitor: Fab U1).
Binder B5 has a residual binding of 132%. Binder B6 has a residual binding of 55%. Binder B7 has a residual binding of 103%.

Each binder was assayed against T2, HCV E1E2 complex, isolate H77 (genotype …) (assay: competition ELISA on lectin-captured H77 E1E2; competitor: Fab V1).
Binder B5 has a residual binding of 79%. In the case of B6, the residual binding is reported as 58%. For B7, the residual binding was 102%. Work on B8 yielded a residual binding of 82%.

These binders were tested against T1, HCV E1E2 complex, isolate H77 (genotype …) (assay: apparent affinity: half-maximal binding, ELISA on lectin-captured E1E2).
For B1, the EC50 was 3.8 nM. B2 was tested, and the EC50 was 2.3 nM.

What follows are binders tested against HCV E1E2 complex, isolate HCV-1 (genotype 1a), vaccinia-expressed (hepatitis C virus genotype 1a, isolate …, UniProt P26664 192-383; P26664 384-746) in the same assay as above.
With B1 the EC50 was 2.6 nM. Work on B2 yielded an EC50 of 1.4 nM.
